Assay results taken from paper PMC2737688.

What was measured:
[1] = molecular target: BK α subunit (mSlo1) pseudo-wild-type with N200C (S3-S4 loop) (mouse); experiment: cross-linking
[2] = molecular target: BK α subunit (mSlo1) pseudo-wild-type with K296C (S6 flank) (mouse); experiment: cross-linking

extent of disulfide crosslinking [1] [%]	extent of disulfide crosslinking [2] [%]	Binder
30		BK β4 subunit pseudo-wild-type with A43C (TM1 flank), 3X FLAG (natural protein) MAKLRVAYEYTEAEDKSIRLGLFLIISGVVSLFIFGFAWLSPCLQDLQATEANCTVLSVQQIGEVFECTFTCGADCRGTSQYPCVQVYVNNSESNSRALLHSDEHQLLTNPKCSYIPPCKRENQKNLESVMNWQQYWKDEIGSQPFTCYFNQHQRPDDVLLHRTHDEIVLLHAFLWPLVTFVVGVLIVVLTICAKSLAVKAEAMKKRKFS
	< 30	BK β4 subunit pseudo-wild-type with V169C (TM2 flank), 3X FLAG (natural protein) MAKLRVAYEYTEAEDKSIRLGLFLIISGVVSLFIFGFAWLSPALQDLQATEANCTVLSVQQIGEVFECTFTCGADCRGTSQYPCVQVYVNNSESNSRALLHSDEHQLLTNPKCSYIPPCKRENQKNLESVMNWQQYWKDEIGSQPFTCYFNQHQRPDDVLLHRTHDEICLLHAFLWPLVTFVVGVLIVVLTICAKSLAVKAEAMKKRKFS
